Experimental data from US20230265151A1, “GIP/GLP1 CO-AGONIST COMPOUNDS” (priority 2020, published 2023).
Residue numbers refer to the chain shown, from its start.

B1: Example 278 (peptide)
peptide: YXEGTXTSDXSIXLDXKAQXEFIXXLIKGGPSSGAPPPS
modifications: Y-Aib-EGT-αMeF(2F)-TSD-OMeY-SI-αMeL-LD-Orn-K((2-[2-(2-Amino-ethoxy)-ethoxy]-acetyl)2-(γ-Glu)-(10-(4-carboxyphenoxy)decanoyl))AQ-Aib-EFI-(D-Glu)-αMeY-LIK((2-[2-(2-Amino-ethoxy)-ethoxy]-acetyl)2-(γ-Glu)-(10-(4-carboxyphenoxy)decanoyl))GGPSSGAPPPS-NH2
B2: Example 323 (peptide)
peptide: B1 peptide with E21K, K28E
modifications: Y-Aib-EGT-αMeF(2F)-TSD-hTyr-SI-αMeL-LD-Orn-K((2-[2-(2-Amino-ethoxy)-ethoxy]-acetyl)2-(γ-Glu)-CO-(CH2)10-CH3)AQ-Aib-K((2-[2-(2-Amino-ethoxy)-ethoxy]-acetyl)2-(γ-Glu)-CO-(CH2)10-CH3)FI-(D-Glu)-αMeY-LIEGGPSSGAPPPS-NH2
B3: Example 307 (peptide)
peptide: B1 peptide with X10Y, S11X, K17I, X24K
modifications: Y-Aib-EGT-αMeF(2F)-TSDY-αMeS-I-αMeL-LD-Orn-IAQ-Aib-EFIK((2-[2-(2-Amino-ethoxy)-ethoxy]-acetyl)2-(γ-Glu)-(10-(4-carboxyphenoxy)decanoyl))-αMeY-LIK((2-[2-(2-Amino-ethoxy)-ethoxy]-acetyl)2-(γ-Glu)-(10-(4-carboxyphenoxy)decanoyl))GGPSSGAPPPS-NH2
B4: Example 332 (peptide)
peptide: B1 peptide with K17I, E21K
modifications: Y-Aib-EGT-αMeF(2F)-TSD-hTyr-SI-αMeL-LD-Orn-IAQ-Aib-K((2-[2-(2-Amino-ethoxy)-ethoxy]-acetyl)2-(γ-Glu)-(10-(4-carboxyphenoxy)decanoyl))FI-(D-Glu)-αMeY-LIK((2-[2-(2-Amino-ethoxy)-ethoxy]-acetyl)2-(γ-Glu)-(10-(4-carboxyphenoxy)decanoyl))GGPSSGAPPPS-NH2
B5: Example 312 (peptide)
peptide: B1 peptide with X10Y, S11X, K17I, X24K
modifications: Y-Aib-EGT-αMeF(2F)-TSDY-Aib-I-αMeL-LD-Orn-IAQ-Aib-EFIK(2-[2-(2-Amino-ethoxy)-ethoxy]-acetyl)2-(γ-Glu)-(11-(4-carboxyphenoxy)undecanoyl)-αMeY-LIK((2-[2-(2-Amino-ethoxy)-ethoxy]-acetyl)2-(γ-Glu)-(11-(4-carboxyphenoxy)undecanoyl)GGPSSGAPPPS-NH2)
B6: Example 286 (peptide)
peptide: B1 peptide with K17I, X24K
modifications: Y-Aib-EGT-αMeF(2F)-TSD-4Pal-SI-αMeL-LD-Orn-IAQ-Aib-EFIK(2-[2-(2-Amino-ethoxy)-ethoxy]-acetyl)2-(γ-Glu)-(11-(4-carboxyphenoxy)undecanoyl)-αMeY-LIK((2-[2-(2-Amino-ethoxy)-ethoxy]-acetyl)2-(γ-Glu)-(11-(4-carboxyphenoxy)undecanoyl)GGPSSGAPPPS-NH2)
B7: Example 280 (peptide)
peptide: B1 peptide with K17I, E21K
modifications: Y-Aib-EGT-αMeF(2F)-TSD-OMeY-SI-αMeL-LD-Orn-IAQ-Aib-K((2-[2-(2-Amino-ethoxy)-ethoxy]-acetyl)2-(γ-Glu)-(10-(4-carboxyphenoxy)decanoyl))FI-(D-Glu)-αMeY-LIK((2-[2-(2-Amino-ethoxy)-ethoxy]-acetyl)2-(γ-Glu)-(10-(4-carboxyphenoxy)decanoyl))GGPSSGAPPPS-NH2
B8: Example 303 (peptide)
peptide: B1 peptide with X10Y, S11X, K17I, X24K
modifications: Y-Aib-EGT-αMeF(2F)-TSDY-αMeS-I-αMeL-LD-Orn-IAQ-Aib-EFIK((2-[2-(2-Amino-ethoxy)-ethoxy]-acetyl)2-(γ-Glu)-CO-(CH2)12-CO2H)-αMeY-LIK((2-[2-(2-Amino-ethoxy)-ethoxy]-acetyl)2-(γ-Glu)-CO-(CH2)12-CO2H)GGPSSGAPPPS-NH2
B9: Example 287 (peptide)
peptide: B1 peptide with K17I, E21K
modifications: Y-Aib-EGT-αMeF(2F)-TSD-4Pal-SI-αMeL-LD-Orn-IAQ-Aib-K(2-[2-(2-Amino-ethoxy)-ethoxy]-acetyl)2-(γ-Glu)-(11-(4-carboxyphenoxy)undecanoyl)FI-(D-Glu)-αMeY-LIK((2-[2-(2-Amino-ethoxy)-ethoxy]-acetyl)2-(γ-Glu)-(11-(4-carboxyphenoxy)undecanoyl)GGPSSGAPPPS-NH2)
B10: Example 289 (peptide)
peptide: B1 peptide with E21K, K28E
modifications: Y-Aib-EGT-αMeF(2F)-TSD-OMeY-SI-αMeL-LD-Orn-K((2-[2-(2-Amino-ethoxy)-ethoxy]-acetyl)2-(γ-Glu)-CO-(CH2)10-CH3)AQ-Aib-K((2-[2-(2-Amino-ethoxy)-ethoxy]-acetyl)2-(γ-Glu)-CO-(CH2)10-CH3)FI-(D-Glu)-αMeY-LIEGGPSSGAPPPS-NH2
B11: Example 284 (peptide)
peptide: B1 peptide with K17I, E21K
modifications: Y-Aib-EGT-αMeF(2F)-TSD-2Nal-SI-αMeL-LD-Orn-IAQ-Aib-K((2-[2-(2-Amino-ethoxy)-ethoxy]-acetyl)2-(γ-Glu)-(10-(4-carboxyphenoxy)decanoyl))FI-(D-Glu)-αMeY-LIK((2-[2-(2-Amino-ethoxy)-ethoxy]-acetyl)2-(γ-Glu)-(10-(4-carboxyphenoxy)decanoyl))GGPSSGAPPPS-NH2
B12: Example 328 (peptide)
peptide: B1 peptide
modifications: Y-Aib-EGT-αMeF(2F)-TSD-Nle-SI-αMeL-LD-Orn-K((2-[2-(2-Amino-ethoxy)-ethoxy]-acetyl)2-(γ-Glu)-(10-(4-carboxyphenoxy)decanoyl))AQ-Aib-EFI-(D-Glu)-αMeY-LIK((2-[2-(2-Amino-ethoxy)-ethoxy]-acetyl)2-(γ-Glu)-(10-(4-carboxyphenoxy)decanoyl))GGPSSGAPPPS-NH2
B13: Example 306 (peptide)
peptide: B1 peptide with S11X, K17I, X24K
modifications: Y-Aib-EGT-αMeF(2F)-TSD-4Pal-αMeS-I-αMeL-LD-Orn-IAQ-Aib-EFIK((2-[2-(2-Amino-ethoxy)-ethoxy]-acetyl)2-(γ-Glu)-(10-(4-carboxyphenoxy)decanoyl))-αMeY-LIK((2-[2-(2-Amino-ethoxy)-ethoxy]-acetyl)2-(γ-Glu)-(10-(4-carboxyphenoxy)decanoyl))GGPSSGAPPPS-NH2
B14: Example 327 (peptide)
peptide: B1 peptide
modifications: Y-Aib-EGT-αMeF(2F)-TSD-hTyr-SI-αMeL-LD-Orn-K((2-[2-(2-Amino-ethoxy)-ethoxy]-acetyl)2-(γ-Glu)-(10-(4-carboxyphenoxy)decanoyl))AQ-Aib-EFI-(D-Glu)-αMeY-LIK((2-[2-(2-Amino-ethoxy)-ethoxy]-acetyl)2-(γ-Glu)-(10-(4-carboxyphenoxy)decanoyl))GGPSSGAPPPS-NH2
B15: Example 290 (peptide)
peptide: B1 peptide
modifications: Y-Aib-EGT-αMeF(2F)-TSD-OMeY-SI-αMeL-LD-Orn-K((2-[2-(2-Amino-ethoxy)-ethoxy]-acetyl)2-(γ-Glu)-CO-(CH2)10-CH3)AQ-Aib-EFI-(D-Glu)-αMeY-LIK((2-[2-(2-Amino-ethoxy)-ethoxy]-acetyl)2-(γ-Glu)-CO-(CH2)10-CH3)GGPSSGAPPPS-NH2

What was measured:
Assay in all cases: cell-based or functional assay
human GIP receptor = target: T1, human GIP receptor (human, UniProt P48546 22-466)
T1 sequence (looked up): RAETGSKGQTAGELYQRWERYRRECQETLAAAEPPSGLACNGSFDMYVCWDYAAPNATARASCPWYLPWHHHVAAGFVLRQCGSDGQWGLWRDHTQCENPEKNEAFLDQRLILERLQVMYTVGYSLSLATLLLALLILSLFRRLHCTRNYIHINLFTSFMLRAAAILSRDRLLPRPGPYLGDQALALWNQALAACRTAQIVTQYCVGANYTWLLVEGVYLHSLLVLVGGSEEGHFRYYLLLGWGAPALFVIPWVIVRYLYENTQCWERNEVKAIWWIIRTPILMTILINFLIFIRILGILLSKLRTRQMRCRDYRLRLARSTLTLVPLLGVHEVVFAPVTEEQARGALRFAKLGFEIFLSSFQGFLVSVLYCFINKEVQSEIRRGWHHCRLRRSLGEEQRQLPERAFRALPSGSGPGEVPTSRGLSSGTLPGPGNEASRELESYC

human GLP-1 receptor = human GLP-1 receptor (human, UniProt P43220 24-463)
human glucagon receptor = human glucagon receptor (human, UniProt P47871 26-477)

Binder	cAMP EC50 (1.0% HSA) (human GIP receptor) [nM]	cAMP EC50 (1.0% HSA) (human GLP-1 receptor) [nM]	cAMP EC50 (1.0% HSA) (human glucagon receptor) [nM]	cAMP Emax (1.0% HSA) (human GIP receptor) [%]	cAMP Emax (1.0% HSA) (human GLP-1 receptor) [%]
B1	1.41	27	> 9950		
B2	0.694	9.52	> 9950		
B3	1.66	33	> 9950	81.8	
B4	4.59	33.3	> 9950		116
B5	4.48	50.8	> 9950	89.5	
B6	2.18	35	> 9950		90.3
B7	4.84	49.9	> 9950	88.5	
B8	2	50.4	> 9950	89.8	
B9	3.76	83.8	> 9950		
B10	3.11	627	> 9950		170
B11	8.38	137	> 9950		
B12	0.75	23.3	> 9950		
B13	1.12	18.2	> 9950		
B14	0.751	13.6	> 9950		
B15	0.878	12.1	> 9950		
